The results in this text go back to patent US20210340201A1 (published 2021).

Assay [1] deals with T1, KRAS G12V peptide on HLA-DRB1*11:04 (human).
T1 peptide: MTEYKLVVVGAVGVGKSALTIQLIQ
Put plainly: cytokine release. On the procedure: (§1) ELISA assays were performed by incubating 50,000 T cells in 96 well round bottom plates with 100,000 autologous B cells or B-LCL lines pulsed with specific concentrations of peptides in RPMI (GIBCO™) supplemented with 5% heat inactivated fetal bovine serum. IFN-γ in supernatants was diluted 1:1, 1:10, and 1:100 and quantitated using human IFN-γ ELISA kit (EBIOSCIENCE™) in technical duplicate or triplicate. HLA blocking experiments were carried out by adding 20 μg/ml antibody anti class I (BIOLEGEND®, cat. 311411) anti HLA DR (BIOLEGEND® clone L243, cat. 307611) or HLA-DQ (ABCAM™, clone spv-I3, cat. ab23632) to the antigen presenting cells one hour prior to adding peptide. ELISpot assays were performed by incubating 20,000-100,000 T cells with 200,000 autologous B cells pulsed with 20 μg/ml of each peptide in CTL medium using the human IFN-γ ELISPOT-PRO™ kit (MABTECH™) according to the manufacturer's instructions. For intracellular IFN-γ staining, PBMC (100,000) were incubated with autologous B cells (100,000) pulsed with the indicated peptides (20 μg/ml) in the presence of brefeldin A (GOLGIPLUG™, BD BIOSCIENCES™) and then fixed and permeabilized using the BD™ intracellular staining kit (BD BIOSCIENCES™) and analyzed using a FACSCANTO™ II flow cytometer.

The target of assay [2] is T2, KRAS G12V peptide on HLA-DRB1*11:01 (human).
T2 peptide: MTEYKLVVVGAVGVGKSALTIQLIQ
Put plainly: cytokine release. On the procedure:
as §1

B1: KRAS G12V clone 3 TCR (TCR, V domains shown)
Valpha: AQSVTQPDIHITVSEGASLELRCNYSYGATPYLFWYVQSPGQGLQLLLKYFSGDTLVQGIKGFEAEFKRSQSSFNLRKPSVHWSDAAEYFCAVGRSNSGGYQKVTFGIGTKLQVIP
Vbeta: IHQWPATLVQPVGSPLSLECTVEGTSNPNLYWYRQAAGRGLQLLFYSVGIGQISSEVPQNLSASRPQDRQFILSSKKLLLSDSGFYLCAWSALAGARDTQYFGPGTRLTVL
B1: the binding result in assay [1] and in assay [2] was “recognises” throughout.

B2: KRAS G12V clone 9 TCR (TCR, V domains shown)
Valpha: SVSQHNHHVILSEAASLELGCNYSYGGTVNLFWYVQYPGQHLQLLLKYFSGDPLVKGIKGFEAEFIKSKFSFNLRKPSVQWSDTAEYFCAVTVVNAGNNRKLIWGLGTSLAVNP
Vbeta: AGVIQSPRHEVTEMGQEVTLRCKPISGHDYLFWYRQTMMRGLELLIYFNNNVPIDDSGMPEDRFSAKMPNASFSTLKIQPSEPRDSAVYFCASSLGLPGTDTQYFGPGTRLTVL
With B2, the binding result in assay [1] and in assay [2] was “recognises” throughout.
